# Reference: patent publication US9605283B2, “Microorganism modified for the production of 1,3-propanediol” (INSTITUT NATIONAL DES SCIENCES APPLIQUÉES, priority 2012, dated 2017)
# Numbering of substitutions follows the chain as printed. Names and notes keep the numbering of the source.
# B1: Sc-Pdc1: pyruvate decarboxylase of Saccharomyces cerevisiae, SEQ ID No. 208 (protein, listed as Saccharomyces cerevisiae)
# chain: MSEITLGKYLFERLKQVNVNTVFGLPGDFNLSLLDKIYEVEGMRWAGNANELNAAYAADGYARIKGMSCIITTFGVGELSALNGIAGSYAEHVGVLHVVGVPSISAQAKQLLLHHTLGNGDFTVFHRMSANISETTAMITDIATAPAEIDRCIRTTYVTQRPVYLGLPANLVDLNVPAKLLQTPIDMSLKPNDAESEKEVIDTILALVKDAKNPVILADACCSRHDVKAETKKLIDLTQFPAFVTPMGKGSIDEQHPRYGGVYVGTLSKPEVKEAVESADLILSVGALLSDFNTGSFSYSYKTKNIVEFHSDHMKIRNATFPGVQMKFVLQKLLTTIADAAKGYKPVAVPARTPANAAVPASTPLKQEWMWNQLGNFLQEGDVVIAETGTSAFGINQTTFPNNTYGISQVLWGSIGFTTGATLGAAFAAEEIDPKKRVILFIGDGSLQLTVQEISTMIRWGLKPYLFVLNNDGYTIEKLIHGPKAQYNEIQGWDHLSLLPTFGAKDYETHRVATTGEWDKLTQDKSFNDNSKIRMIEIMLPVFDAPQNLVEQAKLTAATNAKQ
# B2: Ec-MdhR81A I12V: E. coli malate dehydrogenase mutant R81A I12V, SEQ ID No. 162 (protein, listed as Escherichia coli)
# chain: MKVAVLGAAGGVGQALALLLKTQLPSGSELSLYDIAPVTPGVAVDLSHIPTAVKIKGFSGEDATPALEGADVVLISAGVAAKPGMDRSDLFNVNAGIVKNLVQQVAKTCPKACIGIITNPVNTTVAIAAEVLKKAGVYDKNKLFGVTTLDIIRSNTFVAELKGKQPGEVEVPVIGGHSGVTILPLLSQVPGVSFTEQEVADLTKRIQNAGTEVVEAKAGGGSATLSMGQAAARFGLSLVRALQGEQGVVECAYVEGDGQYARFFSQPLLLGKNGVEERKSIGTLSAFEQNALEGMLDTLKKDIALGEEFVNK
# B3: Ec-MdhR81A D86S: E. coli malate dehydrogenase mutant R81A D86S, SEQ ID No. 170 (protein, listed as Escherichia coli)
# chain: B2 chain with V12I, D86S
# B4: Ec-MdhR81A M85Q I12V: E. coli malate dehydrogenase mutant R81A M85Q I12V, SEQ ID No. 164 (protein, listed as Escherichia coli)
# chain: B2 chain with M85Q
# B5: Ec-MdhR81A D865 G179D: E. coli malate dehydrogenase mutant R81A D86S G179D (printed D865), SEQ ID No 172 (protein, listed as Escherichia coli)
# chain: B2 chain with V12I, D86S, G179D
# B6: Ec-MdhR81A G179D: E. coli malate dehydrogenase mutant R81A G179D, SEQ ID No. 168 (protein, listed as Escherichia coli)
# chain: B2 chain with V12I, G179D
# B7: Ec-MdhR81A M85E I12V: E. coli malate dehydrogenase mutant R81A M85E I12V, SEQ ID No. 166 (protein, listed as Escherichia coli)
# chain: B2 chain with M85E
# B8: Ll-LdhA: (L)-lactate dehydrogenase of Lactococcus lactis, cytosolic, SEQ ID No. 120 (protein, listed as Lactococcus lactis)
# chain: MADKQRKKVILVGDGAVGSSYAFALVNQGIAQELGIVDLFKEKTQGDAEDLSHALAFTSPKKIYSADYSDASDADLVVLTSGAPQKPGETRLDLVEKNLRITKDVVTKIVASGFKGIFLVAANPVDILTYATWKFSGFPKNRVVGSGTSLDTARFRQALAEKVDVDARSIHAYIMGEHGDSEFAVWSHANVAGVKLEQWFQENDYLNEAEIVELFESVRDAAYSIIAKKGATFYGVAVALARITKAILDDEHAVLPVSVFQDGQYGVSDCYLGQPAVVGAEGVVNPIHIPLNDAEMQKMEASGAQLKAIIDEAFAKEEFASAVKN
# B9: Ec-LldD: membrane associated (L)-lactate dehydrogenase of E. coli, SEQ ID No. 122 (protein, listed as Escherichia coli)
# chain: MIISAASDYRAAAQRILPPFLFHYMDGGAYSEYTLRRNVEDLSEVALRQRILKNMSDLSLETTLFNEKLSMPVALAPVGLCGMYARRGEVQAAKAADAHGIPFTLSTVSVCPIEEVAPAIKRPMWFQLYVLRDRGFMRNALERAKAAGCSTLVFTVDMPTPGARYRDAHSGMSGPNAAMRRYLQAVTHPQWAWDVGLNGRPHDLGNISAYLGKPTGLEDYIGWLGNNFDPSISWKDLEWIRDFWDGPMVIKGILDPEDARDAVRFGADGIVVSNHGGRQLDGVLSSARALPAIADAVKGDIAILADSGIRNGLDVVRMIALGADTVLLGRAFLYALATAGQAGVANLLNLIEKEMKVAMTLTGAKSISEITQDSLVQGLGKELPAALAPMAKGNAA
# B10: Zm-Pdc: pyruvate decarboxylase of Zymomonas mobilis, SEQ ID No. 128 (protein, listed as Zymomonas mobilis)
# chain: MSYTVGTYLAERLVQIGLKHHFAVAGDYNLVLLDNLLLNKNMEQVYCCNELNCGFSAEGYARAKGAAAAVVTYSVGALSAFDAIGGAYAENLPVILISGAPNNNDHAAGHVLHHALGKTDYHYQLEMAKNITAAAEAIYTPEEAPAKIDHVIKTALREKKPVYLEIACNIASMPCAAPGPASALFNDEASDEASLNAAVEETLKFIANRDKVAVLVGSKLRAAGAEEAAVKFADALGGAVATMAAAKSFFPEENPHYIGTSWGEVSYPGVEKTMKEADAVIALAPVFNDYSTTGWTDIPDPKKLVLAEPRSVVVNGIRFPSVHLKDYLTRLAQKVSKKTGALDFFKSLNAGELKKAAPADPSAPLVNAEIARQVEALLTPNTTVIAETGDSWFNAQRMKLPNGARVEYEMQWGHIGWSVPAAFGYAVGAPERRNILMVGDGSFQLTAQEVAQMVRLKLPVIIFLINNYGYTIEVMIHDGPYNNIKNWDYAGLMEVFNGNGGYDSGAGKGLKAKTGGELAEAIKVALANTDGPTLIECFIGREDCTEELVKWGKRVAAANSRKPVNKLL
# B11: Zm-Pdc G413N: Z. mobilis pyruvate decarboxylase mutant G413N, SEQ ID No. 194 (protein, listed as Zymomonas mobilis)
# chain: B10 chain with G413N
# B12: Zm-Pdc W392L: Z. mobilis pyruvate decarboxylase mutant W392L, SEQ ID No. 192 (protein, listed as Zymomonas mobilis)
# chain: B10 chain with W392L
# B13: Zm-Pdc W392Q: Z. mobilis pyruvate decarboxylase mutant W392Q, SEQ ID No. 190 (protein, listed as Zymomonas mobilis)
# chain: B10 chain with W392Q
# Assays:
# Assay type in all cases: biochemical
# [1] = OHB decarboxylase activity (coupled to YqhD, NADPH); conditions: for OHB decarboxylase activity (in words): wild-type enzymes; for Effect of mutation on activity and/or specificity for OHB (in words): versus wild-type enzyme
# Protocol: OHB decarboxylase activity was assayed by coupling the decarboxylase activity to the NADPH-dependent reduction of the released 3-hydroxypropanal by purified aldehyde reductase, YqhD, from E. coli. The decarboxylation of pyruvate was coupled to the NADH-dependent reduction of acetaldehyde catalysed by yeast alcohol dehydrogenase. Branched-chain alpha-ketoacid decarboxylase activity was measured on 4-methyl-2-oxovaleric acid by coupling to the NADH-dependent reduction of 3-methylbutanal catalysed by horse liver alcohol dehydrogenase. […] Reactions were started by adding 20 mM 2-oxo-4-hydroxybutyrate (OHB), 10 mM 4-methyl-2-oxovaleric acid (MOV), or 5 mM pyruvate.
# [2] = Pyruvate decarboxylase activity (coupled to yeast alcohol dehydrogenase)
# Protocol: OHB decarboxylase activity was assayed by coupling the decarboxylase activity to the NADPH-dependent reduction of the released 3-hydroxypropanal by purified aldehyde reductase, YqhD, from E. coli. The decarboxylation of pyruvate was coupled to the NADH-dependent reduction of acetaldehyde catalysed by yeast alcohol dehydrogenase. Branched-chain alpha-ketoacid decarboxylase activity was measured on 4-methyl-2-oxovaleric acid by coupling to the NADH-dependent reduction of 3-methylbutanal catalysed by horse liver alcohol dehydrogenase. […]
# [3] = DHB dehydrogenase activity of cytosolic enzymes (DHB-dependent reduction of NAD+)
# Protocol: Activity of the cytosolic DHB dehydrogenases (Ec-Mdh, Bs-Mdh, Ll-LdhA) was assayed by following the DHB-dependent reduction of NAD^+.
# The reaction mixture contained 60 mM Hepes (pH 8), 50 mM potassium chloride, 5 mM MgCl2, 10 mM NAD, (optionally, 5 mM fructose-1,6-bisphosphate (F16bP)) (all products from Sigma), and appropriate amounts of purified enzyme or cell extract. Reactions were started by adding 50 mM (L)-2,4-dihydroxybutyrate (Rhodia).
# All enzymatic assays were carried out at 37° C. in 96-well flat bottomed microtiter plates in a final volume of 250 μL. The reactions were followed by the characteristic absorption of NADH at 340 nm (εNADH=6.22 mM^−1 cm^−1) or the absorbtion of DCIP at 655 nm (εDCIP=5.9 mM^−1 cm^−1) in a microplate reader (BioRad 680XR).
# [4] = Malate dehydrogenase activity (natural substrate); conditions: Table 4; for Max. specific activity, malate: activity measured at 50 mM malate
# [5] = Lactate dehydrogenase activity (natural substrate); conditions: for Max. specific activity, Natural substrate: natural substrate (L)-lactate, Table 2
# [6] = DHB dehydrogenase activity of membrane-associated enzyme (DHB-dependent reduction of DCIP)
# Protocol: Activity of the membrane-associated DHB dehydrogenase (Ec-LldD) was assayed by following the DHB-dependent reduction of 2,6-dichloroindophenol (DCIP). (L)-2,4-dihydroxybutyrate+DCIPox→2-oxo-4-hydroxybutyrate+DCIPred Reaction scheme 2:
# Reactions were started by adding 20 mM (L)-2,4-dihydroxybutyrate (Rhodia).
# [7] = when not saturated, activity estimated at 20 mM substrate, Table 8
# [8] = natural substrate pyruvate, Table 8
# [9] = activity measured at 50 mM DHB, Table 4
# [10] = activity measured at 20 mM OHB, Table 10
# [11] = activity measured at 50 mM pyruvate (Pdc mutants), Table 10
molecule,measurement,setting,value
B1,"Max. specific activity, OHB",[1]; [7],0.055 µmol/mg/min
same,OHB decarboxylase activity (in words),[1],significant OHB decarboxylase activity
same,"Max. specific activity, Natural substrate",[2]; [8],1.3 µmol/mg/min
B2,"Max. specific activity, DHB",[3]; [9],2.5 µmol/mg/min
same,"Max. specific activity, malate",[4],0.66 µmol/mg/min
B3,"Max. specific activity, DHB",[3]; [9],0.79 µmol/mg/min
same,"Max. specific activity, malate",[4],0.42 µmol/mg/min
B4,"Max. specific activity, DHB",[3]; [9],7.1 µmol/mg/min
same,"Max. specific activity, malate",[4],0.98 µmol/mg/min
B5,"Max. specific activity, DHB",[3]; [9],2.51 µmol/mg/min
same,Km,"[3]; ns = not saturated at concentrations of up to 100 mM, Table 4",25 mM
same,"Max. specific activity, malate",[4],0.64 µmol/mg/min
same,Km,"[4]; read-out: Km, malate",4 mM
B6,"Max. specific activity, DHB",[3]; [9],2.1 µmol/mg/min
same,"Max. specific activity, malate",[4],0.52 µmol/mg/min
B7,"Max. specific activity, DHB",[3]; [9],10.3 µmol/mg/min
same,"Max. specific activity, malate",[4],0.91 µmol/mg/min
B8,DHB dehydrogenase activity (in words),[3]; cytosolic wild-type enzymes,have DHB dehydrogenase activity
same,"Max. specific activity, DHB","[3]; when not saturated, activity estimated at 50 mM substrate, Table 2",1 µmol/mg/min
same,"Max. specific activity, Natural substrate",[5],8.8 µmol/mg/min
B9,Specificity,"[6]; (Vmax/Km)DHB/(Vmax/Km)nat. substrate, natural substrate lactate",0.006
same,"Max. specific activity, DHB","[6]; DCIP assay, Table 2",0.37 µmol/mg/min
same,"Max. specific activity, DHB","[6]; E. coli LldD, Table 6",0.37 µmol/mg/min
same,DHB dehydrogenase activity (in words),[6]; membrane-associated enzyme,have DHB dehydrogenase activity
same,"Max. specific activity, lactate","[5]; E. coli LldD, Table 6",6.22 µmol/mg/min
same,"Max. specific activity, Natural substrate",[5],6.22 µmol/mg/min
B10,"Max. specific activity, OHB",[1]; [7],0.052 µmol/mg/min
same,OHB decarboxylase activity (in words),[1],significant OHB decarboxylase activity
same,"Max. specific activity, Natural substrate",[2]; [8],65 µmol/mg/min
B11,"Max. specific activity, OHB",[1]; [10],0.04 µmol/mg/min
same,Effect of mutation on activity and/or specificity for OHB (in words),[1],increased activity and/or specificity for OHB
same,"Max. specific activity, Natural substrate",[2]; [11],0.1 µmol/mg/min
B12,"Max. specific activity, OHB",[1]; [10],0.04 µmol/mg/min
same,Effect of mutation on activity and/or specificity for OHB (in words),[1],increased activity and/or specificity for OHB
same,"Max. specific activity, Natural substrate",[2]; [11],0.09 µmol/mg/min
B13,"Max. specific activity, OHB",[1]; [10],0.19 µmol/mg/min
same,Effect of mutation on activity and/or specificity for OHB (in words),[1],increased activity and/or specificity for OHB
same,"Max. specific activity, Natural substrate",[2]; [11],1.39 µmol/mg/min
